B1: TPR t1 (parent)
chain: GACCAAUCUGCCCUCAGAGCUCGAGAACAUCUUCGGAUGCAGAGGAGGCAGGCUUCGGUGGCGCGAUAGCGCCAACGUCCUCAACCUCCAAUGCAUCCCACCACAUGAUGAUGCCUGAAGAGCCUUGGUUUUUUG

Variants of: B1
Test: polymerase ribozyme fitness, log enrichment relative to wild type (log ratio); higher = more active; in vitro selection for triplet polymerase activity
In short: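 Mutant libraries of both subunits of a heterodimeric triplet polymerase ribozyme were PCR-built, transcribed, and selected once in triplicate, with frozen incubation at −7 °C and capture of gel-excised extended constructs on streptavidin beads before RT-PCR. Illumina sequencing of input and output libraries was filtered to genotypes with ≥10 input reads and ≥1 read per output. Fitness is the logarithm of genotype enrichment over wild-type enrichment, using inverse-variance-weighted replicate averages. The logarithm is base 2.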

In order of rising “polymerase ribozyme fitness (log ratio)” value:
1. A29G C40A C99G A111G  -7.69
2. U32C G61A U67G C82U  -7.29
3. A24U G61C  -7.27
4. C101G C102U G117A  -7.15
5. G60C C97G U109A  -7.09
6. C12A C28U C86U C88U C101A A111C  -7.09
7. C12G A27C C104U G113U G120A G122A U130A  -6.9
8. U109A C123A  -6.83
9. A90C G107C G110C  -6.73
10. C13G C22G C72G C94U C99A G120C  -6.57
11. C3A C12G A26U U30G G65C A121C U130C  -6.48
12. A2U C4A A43G G47C A68G G113A C124U  -6.42
13. A108G U116A C123U  -6.42
14. G25C G63U C99A C115A  -6.39
15. C3U C8A A16U U33A G44A G120C  -6.36
16. C94A U96A  -6.34
17. C79U C94G A100C G117C  -6.32
18. C64G C114A  -6.24
19. U32G C70G C98G  -6.14
20. C3U G10U A41C C115U U126G  -6.14
21. C4U G35C C72U G117C C123U U125A  -6.14
22. A16C C22U G60C G93C A118U A121G  -6.04
23. C11A C12A C28U C31G G52A G63C G113C U116A  -5.83
24. A27U C62G  -5.76
25. A29U G48U C70G C123U  -5.55
26. U55G C62A A74U C102A  -5.52
27. A5U G10A C86U C102U G113A G128C  -5.52
28. C85A C94A A111U  -5.51
29. C15G A37G A66U  -5.5
30. U81G U112G  -5.41
31. A29U G77C U112G G127C  -5.41
32. C3U C72U C98A  -5.34
33. G17C G63A G77U U81A A119G A121C  -5.23
34. G17U A43C U59G C62G A75G C115U C124G  -5.23
35. C11A C64U U78C C80U A83G  -4.97
36. C70G U112C C114A  -4.91
37. U7C C34A G44C A84U  -4.89
38. C28A C70U  -4.86
39. C12U U21A G35A  -4.8
40. C20U G77A U87A G110A  -4.79
41. A91U C102U  -4.75
42. G51C A111G  -4.71
43. C79A U87C G113U  -4.71
44. C49A G113C G120U  -4.69
45. G61A A74U G110U A118G  -4.67
46. C20G C115U G117C  -4.63
47. C20A A27C C62U  -4.63
48. C13U A18G A46C U96C A100C C123G  -4.57
49. U32A G48U G58A C123U  -4.55
50. G10U U59C U96G G117A  -4.44
51. G51A G122A G135U  -4.44
52. U30C C49A C62A C115A  -4.4
53. G45U A111U  -4.37
54. C12G G45C U55C C72U C85A U96A  -4.29
55. G51C C73G  -4.22
56. C13A A24G A29G C94A  -4.2
57. U32C C53U A103C  -4.2
58. G44C G77U C86A  -4.13
59. U9A C13G A37G C82G U116C U125A  -4.1
60. C70A U106G  -4.07
61. C12G U14C G45A A68G U106A  -4.06
62. G36U A118G G128A  -3.98
63. C12U A29G U92C C94A  -3.95
64. G63A A105G  -3.92
65. C22G G42C C115U  -3.85
66. G19A G42U G71U G122A  -3.83
67. G36C C49U A74G C101G A119U  -3.8
68. A2U G57C C82U C98U  -3.78
69. G45U G113U  -3.73
70. C22U C40G G69U C79U C82G  -3.66
71. A43C G47U  -3.64
72. C85U C101A C104A  -3.57
73. A24G G128A  -3.49
74. C11A C40G U129A  -3.42
75. G51A A95C  -3.42
76. G10U C20A C40U A46G C62U C82U C114A  -3.36
77. C70U C99U  -3.35
78. C28U U55C G71A  -3.34
79. G69A U133A  -3.31
80. C12G G117C U126G  -3.28
81. G42A C56G G122A  -3.21
82. C8U C64U C101G G110A  -3.18
83. C20A A27U A95G U131A  -3.17
84. C13G A90C A95G  -3.14
85. G110U G135U  -3.12
86. C12A G44A A46G G48U  -3.1
87. G39C G47C  -3.08
88. A41U G47C A75U  -3.07
89. U78C U81G  -3.03
90. C22G U78C  -3.01
91. U116A  -2.96
92. C88A G117U  -2.84
93. C13U G42U G48A U129A  -2.82
94. G10U C89A C114A  -2.81
95. C28U C72G U78A  -2.79
96. A29G U116G  -2.77
97. U87C C88A U106G  -2.76
98. A66C C85A C86A  -2.7
99. C4G C101A  -2.61
100. A41G G57A G77U C123A G128C  -2.56
101. A103U A121G C123U  -2.56
102. U55G G63U A108G  -2.44
103. A105G G120U  -2.44
104. C15G A50C  -2.38
105. G113A U130A  -2.33
106. G39C G93A  -2.3
107. A2C G77U  -2.28
108. C20A U132A  -2.24
109. C49A C101G  -2.23
110. A46U G48A C62U  -2.23
111. C82A G127A  -2.18
112. A2U C72A  -2.16
113. C40A G69C U130C  -2.11
114. C4A G60A U78C  -2.08
115. A37U G48U G57U U129C  -1.96
116. G36U U106G G120A  -1.89
117. C15U U129C  -1.86
118. A5C A50C U96G  -1.64
119. A2G G113A  -1.6
120. A24G G47A C73A  -1.58
121. C53U C64U G93U  -1.53
122. U21C G61A C114U U125A  -1.45
123. A43G G61U  -1.45
124. A6U U14G  -1.38
125. U9G A29G  -1.35
126. C12U G42C C72U  -1.28
127. A5G C88G  -1.27
128. C13U G69C  -1.26
129. C8U C13A G71U C79U  -1.19
130. A6U G113A  -1.07
131. A46U A84C  -1.04
132. C8A G48U C53A C62U C82U U106A A108G  -1.01
133. G60C G93A  -0.963
134. G71C A90G  -0.94
135. U87C C94A  -0.939
136. C115U  -0.935
137. A5G G63U  -0.893
138. G39A U96C  -0.886
139. C80U U131A  -0.732
140. G44A G77C  -0.688
141. A5G C8U A95C  -0.636
142. G58C G60C  -0.636
143. U7C C11G A16G G52U U59G C72U  -0.58
144. G42U U112A  -0.57
145. G61A C88U U131G  -0.555
146. C28U C124U  -0.485
147. C94U U131A  -0.362
148. C3U U87G  -0.293
149. A84C U130C  -0.28
150. C101G U106A G122A  -0.277
151. C3U U106A  -0.258
152. C62U U132C  -0.257
153. U59G G61U A118U  -0.0772
154. C8G C73G  0.0346
155. C12U A16C C73A A83C  0.284
156. G93U C123U  0.528
157. C12U G60C  0.537
158. G120A U126A U131G  0.608
159. A5U C15G C72G A119G A121U  0.915
160. C72A C94U G120C  1.05
161. C56A C124U  1.18
162. A43U A121U  1.26
163. A16G G61C C72U U81A U106A U116C  1.38
164. A121U U130G  1.98
165. C53A G57C U78A U112A A119G  2.05
166. C8G C11U C124A  2.24
167. C53A C123G  2.31

From the RNAGym collection of RNA variant scans (doi:10.1073/pnas.2313332121)
